According to patent publication US9125872B2, “Polyethylene glycol aerogels for targeted delivery of pharmaceutical drubs” (priority 2009, dated 2015):

Legend:
Type in all cases: physicochemical
[1] = Solubility of purified solid protein-PEG conjugates in water
[2] = Drug loading and biologics encapsulation in PEG aerogel granules
Protocol: To 1 gram PEG [MW=2,000,000] dissolved in 100 ml anhydrous toluene, 100 mg [0.1 gram] BSA powder is dispersed and the mixture was stirred at 38-45° C. for 30-60 minutes to allow coating/adsorption of soluble PEG molecules on solid BSA particles. 0.2 g benzoyl peroxide was heated in 15 ml anhydrous toluene at 85° C. for 10 minutes. After cooling to 76° C., the catalyst solution was added to the warm PEG-BSA suspension at 38° C., which raised the temperature to 43° C., and mixing was continued for 15 minutes. The solution was poured into a mold and stored in a glove box. Toluene was later removed from the gel by solvent extraction with supercritical carbon dioxide fluid to obtain dry solid aerogel encapsulating BSA fine particles.
5 ml (=2.6 g) granules from PEG aerogel #2 (2009 cold preparation) were desiccated overnight to remove any absorbed vapors during storage.
Gemzar [Eli Lilly, Indiana] solution was made by dissolving 200 mg Gemcitabine HCl in 5 ml 0.9% NaCl [sodium chloride] aqueous solution. 2.3 ml (0.61 g) PEG aerogel #1 [“hot” preparation, 2009] granules were desiccated overnight to remove any absorbed vapors during storage. […] The mixture was placed in a desiccator to remove excess water and render dry loaded aerogel granules.
BSA protein (MW=66,000) was used as an example of large biologic molecules to be encapsulated in PEG aerogel during the gelation process. The encapsulation method is described in the aerogel preparation section.

[3] = Sequential time release of BSA encapsulated in PEG aerogel in distilled water (UV-spectroscopy); conditions: room temperature
Protocol: As an example of encapsulation and release of pharmaceutical biologics, release tests conducted using one sample weighing 13 mg PEG aerogel encapsulating 1 mg BSA protein in 10 ml distilled water at room temperature. Small solution samples were withdrawn at indicated time intervals above for BSA analysis with UV-spectroscopy at 280 and 260 nm wavelength. Results are calculated and tabulated.

[4] = of the PEG aerogel granules carrying the drug/biologic

Q: Which results are given for “BSA-PEG-N: BSA linked to aerogel of PEG + Bis(3-aminopropyl) terminated PEG 1,500/2,100”?
A: Solubility in Water ([1]; Body Temperature (37° C.)): No; Solubility in Water ([1]; Room Temperature (23° C.)): No

Q: For “BSA-PEG-O: BSA linked to aerogel of PEG + Diglycidylether terminated PEG, 1000”, which “Solubility in Water” value ([1]; Body Temperature (37° C.)) is on record?
A: Its value is “No”.

Q: What about the “Solubility in Water” value ([1]; Room Temperature (23° C.)) of the same substance?
A: Its value is “No”.

Q: What does the source list for “BSA-PEG: BSA surface-linked via EDC to PEG only aerogel”?
A: Solubility in Water ([1]; Body Temperature (37° C.)): No; Solubility in Water ([1]; Body Temperature (37° C.), listed as aerogel-BSA “conjugate”): water insoluble; Solubility in Water ([1]; Room Temperature (23° C.)): No

Q: Which “Aerogel Density” value [2, 4] does the source give for bovine serum albumin [BSA Protein] here?
A: Its value is 0.30 g/cc.

Q: What about the “Aerogel Porosity” value [2, 4] of the same substance?
A: Its value is 75% vol %.

Q: And the Loading/Encapsulation ([2]; weight of solution (or BSA) per g PEG aerogel)?
A: The Loading/Encapsulation was 77 mg/g Aerogel.

Q: What about the Loading/Encapsulation ([2]; weight of solution (or BSA) per ml PEG aerogel) of the same substance?
A: Its Loading/Encapsulation is 23 mg/ml Aerogel.

Q: And the “Released BSA” value ([3]; 15 minutes, 13 mg PEG aerogel with 1 mg BSA in 10 ml distilled water)?
A: Its value is 0.19 mg.

Q: What about the “Cumulative Percent Release” value ([3]; 15 minutes, distilled water) of the same substance?
A: The value was 19 % of 1 mg.

Q: What about the “Cumulative Release” value ([3]; 15 minutes, distilled water) of the same substance?
A: Its value is 0.19 mg.

Q: And the “Released BSA” value ([3]; 3 hours (increment), distilled water)?
A: Its value is 0.22 mg.

Q: What about the “Cumulative Percent Release” value ([3]; 3 hours, distilled water) of the same substance?
A: Its value is 41 % of 1 mg.

Q: What about the “Cumulative Release” value ([3]; 3 hours, distilled water) of the same substance?
A: The value was 0.41 mg.

Q: What about the “Released BSA” value ([3]; 20 hours (increment), distilled water) of the same substance?
A: Its value is 0.26 mg.

Q: And the “Cumulative Percent Release” value ([3]; 20 hours, distilled water)?
A: The value was 67 % of 1 mg.

Q: What about the “Cumulative Release” value ([3]; 20 hours, distilled water) of the same substance?
A: Its value is 0.67 mg.
